Experimental data published in PMC7454256 (Antibody Therapeutics, 2020).

B1: ADI-15946 (antibody, V domains shown)
VH: EVQLVESGGGLVKPGGSLRLSCAASGFTFSNAWMSWVRQAPGKGLEWVGRIKSKTDGGTIDYAAPVKGRFTISRDDSKNTVYLQMTSLKTEDTAVYYCTTYTEDMRYFDWLLRGGETFDYWGQGTLVTVSS
VL: DIRLTQSPSSLSASVGDRVTITCRASHYISTYLNWYQQKPGKAPKLLIYAASNLQSGVPSRFSGSGFGTDFSLTISSLQPEDFATYHCQQSYSTPGRYTFGQGTKVEIK
notes: also called PE-64
B2: mAb100 (antibody, V domains shown)
VH: QVQLQESGPGLVKPSDTLSLTCTVSGGSLSSFYWSWIRQPPGKGLEWIGYIYYSGSPNYSPSLESRVTMSVDTTRNQISLKLDSVTAADTAVYYCVRASRSYYWGSYRPTAFDSWGQGTLVTVSS
VL: YELTQPLSVSVSPGQTAIFTCSGDNLGDKYVCWFQQRPGQSPMLLIYQDNKRPSGIPERFSGSNSGNTATLTISGTQSTDEADYYCQTWDSTVVFGGGTKLTVL
B3: KZ52 (antibody, V domains shown)
VH: EVQLLESGGGLVKPGGSLRLSCAASGFTLINYRMNWVRQAPGKGLEWVSSISSSSSYIHYADSVKGRFTISRDNAENSLYLQMNSLRAEDTAVYYCVREGPRATGYSMADVFDIWGQGTMVTVSS
VL: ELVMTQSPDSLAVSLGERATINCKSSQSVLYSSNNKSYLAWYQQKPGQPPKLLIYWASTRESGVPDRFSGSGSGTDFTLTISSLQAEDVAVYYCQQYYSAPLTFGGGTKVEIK
notes: source: supplied in purified form (Integrated Biotherapeutics)
B4: CA45 (antibody, V domains shown)
VH: QVQLQEWGEGLVKPSETLSLTCAVYGGSISGYYHWNWIRLPPGKGLEWIGNIDGNSASTNYNPSLKTRVTISKDTSKNQISLKVRSLTAADTAVYYCARDPGFTIFGVVITSWSGLDSWGQGAVVTVSS
VL: DIQMTQSPSSLSASVGDTVTITCRASQSISNNLAWYQQRPRRAPQLLIYAASNLASGVPSRFSGSGSGTDFTLTISSLQAEDFAAYYCQQHNTLPLTFGGGTKVEIK
B5: mAb114 (antibody, V domains shown)
VH: EVQLVESGGGLIQPGGSLRLSCAASGFALRMYDMHWVRQTIDKRLEWVSAVGPSGDTYYADSVKGRFAVSRENAKNSLSLQMNSLTAGDTAIYYCVRSDRGVAGLFDSWGQGILVTVSS
VL: DIQMTQSPSSLSASVGDRITITCRASQAFDNYVAWYQQRPGKVPKLLISAASALHAGVPSRFSGSGSGTHFTLTISSLQPEDVATYYCQNYNSAPLTFGGGTKVEIK
notes: as for B3
B6: ADI-15878 (antibody, V domains shown)
VH: QVQLVQSGVTLVQPGGSLRVSCAASGFTFSSYAMSWVRQAPGKGLEWVSAISGLGGSTYYADSVKGRFTISRDNSKNTLYLQMNSLRAEDTAVYYCAKDHRVWAAGYHFDYWGQGALVTVSS
VL: DIVLTQSPSTLSASVGDRVTITCRASQSISSWLAWYQQKPGEAPKLLISDASSLESGVPSRFSGSGSGTEFTLTISSLQPDDFATYYCQQYYSSPIFGGGTKVEIK
notes: also called PE-87; Control PE-87; source: supplied in purified form (Integrated Biotherapeutics)

Key:
[1] = target: T1, Ebola virus glycoprotein (EBOV GP), trimer of the GP1 + GP2 heterodimer lacking the transmembrane domain (Ebola virus, Mayinga strain, UniProt Q05320); test: SPR; conditions: both partners purified
T1 construct: also called soluble Ebola virus glycoprotein; EBOV GP trimer complex of GP1 + GP2 heterodimer; source: Drosophila S2 cells; supplied by Integrated Biotherapeutics, purified
T1 sequence (Q05320 33-637, one chain of several): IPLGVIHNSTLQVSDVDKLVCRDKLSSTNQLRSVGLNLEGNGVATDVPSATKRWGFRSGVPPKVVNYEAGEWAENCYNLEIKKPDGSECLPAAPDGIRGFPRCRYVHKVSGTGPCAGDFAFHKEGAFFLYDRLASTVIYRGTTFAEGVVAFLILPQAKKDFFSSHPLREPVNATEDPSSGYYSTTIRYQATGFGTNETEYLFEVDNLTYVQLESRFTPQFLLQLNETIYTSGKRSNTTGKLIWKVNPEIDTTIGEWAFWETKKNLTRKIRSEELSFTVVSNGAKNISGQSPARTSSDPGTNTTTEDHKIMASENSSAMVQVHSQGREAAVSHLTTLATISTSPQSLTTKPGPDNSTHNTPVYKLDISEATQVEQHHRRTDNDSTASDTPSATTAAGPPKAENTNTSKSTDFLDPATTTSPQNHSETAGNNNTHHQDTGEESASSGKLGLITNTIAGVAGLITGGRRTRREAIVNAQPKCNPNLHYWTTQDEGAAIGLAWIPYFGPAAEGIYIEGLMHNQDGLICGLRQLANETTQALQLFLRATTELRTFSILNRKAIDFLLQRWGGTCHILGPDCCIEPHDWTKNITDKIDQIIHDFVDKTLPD

[2] = target: T2, Ebola virus glycoprotein (EBOV GP), trimer of the GP1 + GP2 heterodimer lacking the transmembrane domain (Ebola virus, Mayinga strain, UniProt Q05320); test: SPR; conditions: both partners purified; remark: listed apart in the source
T2 construct: also called soluble Ebola virus glycoprotein; EBOV GP trimer complex of GP1 + GP2 heterodimer; source: Drosophila S2 cells; supplied by Integrated Biotherapeutics, purified
T2 sequence (Q05320 33-637, one chain of several): as above

Binder	binding result [1]	binding result [2]
B1	binds	
B2	binds	
B3		binds
B4	binds	
B5		binds
B6		binds
